B1: SMG5 (parent)
chain: QEKLQVLMAEGLLPAVKVFLDWLR

Variants of: B1
Assay: protein stability index of a GFP-peptide fusion (GPS, HEK-293T) (PSI 1-6); higher = more stable
Settings: c terminus: a fixed tail appended
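Note: lentivirally expressed fusions sorted by FACS into six bins by GFP to DsRed ratio, PSI derived from sequencing read proportions per bin multiplied by bin number.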

Protein stability index: each site, then its substitutions
E10: R 1.95 | T 2.89 | P 2.12 | L 1.93 | I 1.4 | M 1.85 | F 1.86 | W 1.65 | V 1.76 | Y 1.56 | S 2.61 | Q 2.35 | H 3.21
V18: W 1.64 | G 3.13 | E 2.37 | M 2.59 | F 1.94 | R 3.86 | H 3.52 | I 2.82 | A 2.19 | P 1.91 | D 2.44 | K 2.05 | Q 3.07 | C 2.37 | T 3.25 | S 3.52 | L 1.99 | Y 3.16
V16: T 2.46 | D 1.95 | I 2.16 | L 1.39 | E 2.15 | K 2.04 | F 2.56 | G 1.15 | S 2.31 | C 1.98 | N 1.75 | Y 2.29 | W 1.96 | R 2.25 | H 1.93 | Q 1.86 | A 1.67 | P 3.13 | M 1.85
A15: T 3.37 | D 1.66 | H 1.99 | S 2.39 | Y 2.5 | M 2.05 | V 1.88 | Q 2.21 | C 2.72 | N 2.4 | W 1.88 | G 2.45 | P 1.86 | I 1.76 | F 2.42 | E 2 | R 4.13 | L 1.63
L13: E 1.09 | F 1.38 | T 1.29 | C 2.25 | S 2.78 | R 1.37 | D 1.98 | V 2.04 | A 2.36 | Q 1.71 | K 1.62 | P 2.6 | M 2.27 | N 1.99 | Y 3.17 | G 2.17 | W 2.62 | H 2.6
G11: N 1.52 | P 2.2 | I 1.81 | Q 1.69 | M 2.38 | R 2.04 | S 1.99 | V 2.56 | A 2.28 | T 2.44 | K 1.6 | E 1.6 | D 1.64 | Y 2.29 | L 1.6 | F 1.84 | H 1.99 | C 1.99 | W 2.23
P14: K 3.27 | N 2.38 | E 1.96 | F 1.97 | I 1.19 | L 1.67 | R 1.69 | V 1.42 | Q 1.83 | A 2.25 | M 1.75 | T 2.54 | Y 2.43 | D 2.29 | W 2.46 | C 1.7 | G 1.17 | S 2.32
K17: R 2.07 | C 1.86 | E 1.72 | H 1.71 | F 1.91 | T 2.05 | P 1.2 | Y 2.78 | Q 1.44 | W 2.18 | M 1.79 | N 2.26 | A 2.99 | S 1.82 | I 2.31 | G 1.91 | V 1.52 | L 2.03 | D 1.27
F19: C 2.4 | I 2.39 | E 1.53 | D 2.14 | A 2.97 | H 1.31 | G 3.15
L12: S 2.42 | Q 2.1 | N 1.82 | D 2.16 | V 1.39 | G 1.79 | P 3.4 | T 2.21 | Y 2.32 | I 2.14 | M 1.22 | A 1.61 | K 2.34 | H 1.25 | F 1.91 | W 1.8 | R 3.06 | E 2.32

Reference: the supplement of paper PMC10567573
